B1: library; numbered along this chain (parent)
chain: MAAAAAAAAEQQSSNGPVKKSMREKAVERRSVNKEHNSNFKAGYIPIDEDRLHKTGLRGRKGNLAICVIILLFILAVINLIITLVIWAVIRIGPNGCDSMEFHESGLLRFKQVSDMGVIHPLYKSTVGGRRNENLVITGNNQPIVFQQGTTKLSVENNKTSITSDIGMQFFDPRTQNILFSTDYETHEFHLPSGVKSLNVQKASTERITSNATSDLNIKVDGRAIVRGNEGVFIMGKTIEFHMGGNMELKAENSIILNGSVMVSTTRLPSSSSGDQLGSGDWVRYKLCMCADGTLFKVQVTSQNMGCQISDNPCGNTH

Variants of: B1
Experiment: SGCB cell-surface expression functional score (HA stain, bin4 vs bin1, normalised to synonymous) (log10 ratio); higher = more cell-surface SGCB (functional)
Method in brief: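 Using lentivirus at MOI <0.1, HA-tagged, YFP-fused human beta-sarcoglycan codon-saturation libraries were put into HEK293 cells with stable alpha-, gamma- and delta-sarcoglycan expression, in duplicate transductions. YFP-positive cells were collected by sorting 72 hours later, grown 5–7 days, stained on ice with Alexa Fluor 647 anti-HA, fixed, sorted into four 5% intensity bins and amplicon-sequenced. The functional score takes the median, across codons and transductions, of the log ratio of highest-bin to lowest-bin variant frequency. Within each section, synonymous variants were scaled to mean 0, SD 0.5.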

| Variant | SGCB cell-surface expression functional score (log10) |
| --- | --- |
| N63V | -0.44 |
| G306F | -0.43 |
| V27W | 0.1 |
| S21Q | -0.25 |
| N177Y | 0.11 |
| S264Y | 0.34 |
| V85I | -0.18 |
| F241M | 0.82 |
| T317E | -0.34 |
| T213Q | 0.13 |
| V226Y | -0.87 |
| R223W | 0 |
| L108V | -0.08 |
| K19M | 0.02 |
| L268E | -0.13 |
| I74E | 0.75 |
| M262P | -0.34 |
| D50L | 0.12 |
| V77Y | -0.22 |
| I178P | 0.29 |
| Y123V | -0.18 |
| W87I | 0.48 |
| P46S | 0.15 |
| S31C | 0.19 |

| Variant | SGCB cell-surface expression functional score (log10) |
| --- | --- |
| D281Q | 0.18 |
| S310A | -0.09 |
| G236C | -1.64 |
| P46T | 0.21 |
| S154P | -1.03 |
| G43Q | 0.32 |
| E101V | -0.43 |
| T294S | 0.17 |
| C307M | -0.59 |
| N177F | -0.18 |
| E49L | -0.04 |
| N37Y | -0.46 |
| K20V | 0.32 |
| V89H | -1.8 |
| A251C | 0.59 |
| N258T | -0.05 |
| K219P | -0.21 |
| I81W | -0.38 |
| K34P | 0.25 |
| V283P | -0.19 |
| T126Q | -0.75 |
| F170N | -1.47 |
| I47E | 0.72 |
| G93F | -1.18 |

| Variant | SGCB cell-surface expression functional score (log10) |
| --- | --- |
| Q11K | -0.03 |
| K41H | 0.22 |
| V298E | 0.17 |
| I92K | -1.31 |
| L249W | 0.63 |
| A251G | 0.05 |
| P313M | -0.49 |
| S13H | 0.13 |
| K219A | 0.76 |
| P17E | 0.21 |
| V200H | -2.51 |
| I74P | -0.18 |
| A224L | 1.04 |
| S271R | -0.24 |
| K41T | 0.26 |
| I137S | -1.35 |
| M289E | 0.05 |
| T150E | -0.57 |
| G129C | -1.01 |
| L75M | 0.77 |
| T163L | -0.56 |
| D221M | 0.53 |
| C290P | -1.32 |
| N229T | 0.29 |

| Variant | SGCB cell-surface expression functional score (log10) |
| --- | --- |
| I162H | -1.02 |
| E230L | 0.63 |
| S14D | 0.3 |
| A3Q | 0.11 |
| S214A | 0.25 |
| R109G | -0.81 |
| I218M | 0.26 |
| T151I | -0.82 |
| E206T | 0.4 |
| K159R | -0.48 |
| F73Q | 0.6 |
| K54N | 0.23 |
| A2M | 0.02 |
| K202V | -0.17 |
| L107H | -0.67 |
| I309E | -0.14 |
| I144R | -1.06 |
| L287C | 0.06 |
| F189C | -1.67 |
| V145F | -0.11 |
| A9P | 0.17 |
| G62E | 0.11 |
| N157Y | 0.04 |
| Q201S | -0.35 |

| Variant | SGCB cell-surface expression functional score (log10) |
| --- | --- |
| D281R | -0.24 |
| R130L | 0.65 |
| N37P | -0.1 |
| E24H | 0.46 |
| H53D | -0.16 |
| K124Q | 0.27 |
| N140F | -0.56 |
| S38D | 0.3 |
| L80F | -0.22 |
| A251Q | -2.02 |
| H190V | -0.28 |
| E252M | 0.8 |
| V261Y | -1.15 |
| P94C | -0.07 |
| N316D | 0.19 |
| A3W | 0.1 |
| L135H | -1.28 |
| I70W | 1.07 |
| V127Y | -1.55 |
| F40K | 0.55 |
| V263I | 0.77 |
| V200L | -0.58 |
| V145T | 0.04 |
| V283W | -1.26 |

| Variant | SGCB cell-surface expression functional score (log10) |
| --- | --- |
| V68H | -0.35 |
| L52Q | 0.35 |
| Y184F | 0.26 |
| S21C | 0.5 |
| D115V | -0.75 |
| M243Y | 0.13 |
| Q11H | 0.19 |
| K111G | -1.08 |
| A5Y | 0.39 |
| K250C | 0.5 |
| G106P | -1.85 |
| L57C | 0.07 |
| L153H | -1.03 |
| F296L | -0.05 |
| A4F | -0.21 |
| P269A | -0.23 |
| T238M | 0.93 |
| K297V | -0.02 |
| A5Q | 0.33 |
| P192N | -1.53 |
| A224S | 0.3 |
| D281W | -1.51 |
| D311S | -0.06 |
| F146D | -1.36 |

| Variant | SGCB cell-surface expression functional score (log10) |
| --- | --- |
| N95V | -0.38 |
| E230Y | 0.86 |
| K202C | -0.1 |
| N132K | -0.36 |
| P46G | 0.65 |
| S14P | 0.22 |
| S272F | 0.1 |
| N132G | 0.13 |
| S270L | 0.64 |
| Q148W | 0.01 |
| L107K | -0.53 |
| F170S | -0.47 |
| L84N | -0.44 |
| S181H | -1.65 |
| R58L | 0 |
| M22W | 0.08 |
| N15K | 0.05 |
| R30F | 0.27 |
| Q112H | 0.02 |
| D115S | -1.55 |
| A76Q | 0.3 |
| I86Q | -0.24 |
| T205H | -0.99 |
